Measurements published in patent publication US20230270823A1.
Like-named read-outs stand apart in the source and are kept apart here.

Assays:
Experiment in all cases: cell-based or functional assay
[1] = molecular target: IL-15Rβ/γ chain (IL-2Rβ and common gamma chain) on human CD8+ T cells and NK cells (human) (UniProt P14784)
[2] = molecular target: IL-15Rβ/γ chain (IL-2Rβ and common gamma chain) on human CD8+ T cells and NK cells (human) (UniProt P14784); remark: listed apart in the source
[3] = molecular target: IL-15Rβ/γ chain (IL-2Rβ and common gamma chain) on human CD8+ T cells and NK cells (human) (UniProt P14784); remark: listed apart in the source
[4] = molecular target: IL-15Rβ/γ chain (IL-2Rβ and common gamma chain) on human CD8+ T cells and NK cells (human) (UniProt P14784); remark: listed apart in the source

Chain of IL-15Rβ/γ chain (IL-2Rβ and common gamma chain) on human CD8+ T cells and NK cells (human) (P14784 27-551, chain 1 of 2): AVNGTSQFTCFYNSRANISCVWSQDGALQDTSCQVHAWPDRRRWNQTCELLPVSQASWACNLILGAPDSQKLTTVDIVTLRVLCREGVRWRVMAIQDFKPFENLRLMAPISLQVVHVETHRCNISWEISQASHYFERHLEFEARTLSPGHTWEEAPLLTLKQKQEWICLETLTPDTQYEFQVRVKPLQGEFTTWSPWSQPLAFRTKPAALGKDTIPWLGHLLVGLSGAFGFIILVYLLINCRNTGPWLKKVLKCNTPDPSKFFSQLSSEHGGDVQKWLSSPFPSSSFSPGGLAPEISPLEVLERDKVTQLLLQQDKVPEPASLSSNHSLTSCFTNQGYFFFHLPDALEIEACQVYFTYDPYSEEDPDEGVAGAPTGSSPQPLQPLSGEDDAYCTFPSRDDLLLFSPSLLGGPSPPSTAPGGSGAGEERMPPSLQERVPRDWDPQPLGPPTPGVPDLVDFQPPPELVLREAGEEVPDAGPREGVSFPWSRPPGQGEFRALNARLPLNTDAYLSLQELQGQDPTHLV
Chain of IL-15Rβ/γ chain (IL-2Rβ and common gamma chain) on human CD8+ T cells and NK cells (human) (P31785 23-369, chain 2 of 2, further chain): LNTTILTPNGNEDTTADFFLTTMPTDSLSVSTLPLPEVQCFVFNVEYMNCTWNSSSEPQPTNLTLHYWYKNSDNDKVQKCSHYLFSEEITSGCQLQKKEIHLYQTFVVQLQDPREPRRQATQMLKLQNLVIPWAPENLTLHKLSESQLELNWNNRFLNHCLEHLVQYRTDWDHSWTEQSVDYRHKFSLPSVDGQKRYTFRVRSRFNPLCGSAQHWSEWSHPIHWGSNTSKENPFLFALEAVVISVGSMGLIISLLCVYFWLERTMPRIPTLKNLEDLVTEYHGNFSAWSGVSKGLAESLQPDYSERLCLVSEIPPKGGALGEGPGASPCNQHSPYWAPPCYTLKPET

B1: W369-BMK1 (XENP24306) (Fc fusion, not shown: a dimerising Fc or GST)
chain: NWVNVISDLKKIEDLIQSMHIDATLYTESNVHPSCKVTAMKCFLLELQVISLESGDASIHDTVQDLIILANNSLSSNGNVTESGCKECEELEEKNIKEFLQSFVHIVQMFINTS
modifications: IL-15Rα-Fc chain, linker, Fc lack entries
B1 gave an EC50, % Ki67 expression, human CD8+ T cells [1] of 651 nM, an EC50, % Ki67 expression, human NK cells [1] of 74.3 nM and a Fold reduced (EC50, % Ki67), human CD8+ T cells [1] of 2170 fold. It also gave a Fold reduced (EC50, % Ki67), human NK cells [1] of 2480 fold, an EC50, % Ki67 expression, human CD8+ T cells [2] of 145 nM and an EC50, % Ki67 expression, human NK cells [2] of 39 nM. It also gave a Fold reduced (EC50, % Ki67), human CD8+ T cells [2] of 176 fold, a Fold reduced (EC50, % Ki67), human NK cells [2] of 231 fold and an EC50, % Ki67 expression, human CD8+ T cells [3] of 203 nM. It also gave an EC50, % Ki67 expression, human NK cells [3] of 35.5 nM, a Fold reduced (EC50, % Ki67), human CD8+ T cells [3] of 441 fold and a Fold reduced (EC50, % Ki67), human NK cells [3] of 355 fold. It also gave an EC50, % Ki67 expression, human CD8+ T cells [4] of 28.5 nM, an EC50, % Ki67 expression, human NK cells [4] of 5.12 nM and a Fold reduced (EC50, % Ki67), human CD8+ T cells [4] of 155 fold. For the same binder, the Fold reduced (EC50, % Ki67), human NK cells [4] was 244 fold.
